Literature values in PMC8266389.

Assays:
Cripto-1 (Homo sapiens) = Cripto-1 (Homo sapiens) (UniProt P13385)
Cryptic (Homo sapiens) = Cryptic (Homo sapiens) (UniProt P0CG37)
ACTRIIB (Homo sapiens) = ACTRIIB (Homo sapiens) (UniProt Q13705)
BMPRII (Homo sapiens) = BMPRII (Homo sapiens) (UniProt Q13873)
ALK4 (Homo sapiens) = ALK4 (Homo sapiens) (UniProt P36896)
ACTRIIA (Homo sapiens) = ACTRIIA (Homo sapiens) (UniProt P27037)
UniProt P27037, sequence (P27037 20-135): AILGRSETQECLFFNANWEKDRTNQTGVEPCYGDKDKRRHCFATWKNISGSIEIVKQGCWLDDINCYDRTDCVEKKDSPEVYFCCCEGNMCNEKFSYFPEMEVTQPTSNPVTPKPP

UniProt P0CG37, sequence (P0CG37 26-158): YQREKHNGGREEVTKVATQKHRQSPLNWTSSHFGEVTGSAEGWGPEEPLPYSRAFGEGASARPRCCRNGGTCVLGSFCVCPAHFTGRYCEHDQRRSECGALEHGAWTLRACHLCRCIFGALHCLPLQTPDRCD
UniProt Q13873, sequence (Q13873 27-150): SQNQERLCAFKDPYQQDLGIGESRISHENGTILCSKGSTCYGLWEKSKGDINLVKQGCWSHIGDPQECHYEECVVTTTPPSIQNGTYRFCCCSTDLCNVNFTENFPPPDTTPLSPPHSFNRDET
UniProt P13385, sequence (P13385 31-150): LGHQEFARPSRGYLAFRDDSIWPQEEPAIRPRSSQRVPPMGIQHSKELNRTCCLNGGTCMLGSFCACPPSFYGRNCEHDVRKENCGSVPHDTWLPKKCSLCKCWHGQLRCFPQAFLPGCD
UniProt P36896, sequence (P36896 24-126): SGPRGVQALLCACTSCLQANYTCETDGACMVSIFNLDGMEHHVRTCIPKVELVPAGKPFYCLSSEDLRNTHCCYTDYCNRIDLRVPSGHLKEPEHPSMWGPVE
UniProt Q13705, sequence (Q13705 19-137): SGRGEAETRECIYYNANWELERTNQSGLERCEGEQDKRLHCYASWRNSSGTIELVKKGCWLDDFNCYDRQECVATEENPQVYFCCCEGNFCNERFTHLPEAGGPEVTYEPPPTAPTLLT

For Nodal (from UniProt Q96S42), the Kd (Cripto-1 (Homo sapiens)) is listed as 16 nM, the Kd (Cryptic (Homo sapiens)) is listed as 2000 nM and the Kd (ACTRIIB (Homo sapiens)) is listed as 10 nM. The Kd (BMPRII (Homo sapiens)) was 0.149 nM, the Kd (ALK4 (Homo sapiens)) was 15 nM and the Kd (ACTRIIA (Homo sapiens)) was 100 nM.
